Bridges are numbered along the chain shown (N, C = ends). Where no end group is shown, it is not given here. [ ]: non-standard residue; d: D form. Nle = CCCC[C@H](N)C(=O)O; Dap = NC[C@H](N)C(=O)O
B1: SEQ ID NO:5 (Tyr-c[Asp-Trp-Arg-DPhe-Asn-Ala-Phe-Dpr]-Tyr) (peptide)
peptide: YDWR[dF]NAF[Dap]Y-NH2
modifications: lactam 2-9; N-terminus assumed
SMILES: C[C@@H]1NC(=O)[C@H](CC(N)=O)NC(=O)[C@@H](Cc2ccccc2)NC(=O)[C@H](CCCNC(=N)N)NC(=O)[C@H](Cc2c[nH]c3ccccc23)NC(=O)[C@@H](NC(=O)[C@@H](N)Cc2ccc(O)cc2)CC(=O)NC[C@@H](C(=O)N[C@@H](Cc2ccc(O)cc2)C(N)=O)NC(=O)[C@H](Cc2ccccc2)NC1=O
B2: SEQ ID NO:31 (Tyr-c[Asp-His-Pro-Arg-Trp-Asn-Ala-Phe-Dpr]-Tyr) (peptide)
peptide: YDHPRWNAF[Dap]Y-NH2
modifications: lactam 2-10; N-terminus assumed
SMILES: C[C@@H]1NC(=O)[C@H](CC(N)=O)NC(=O)[C@H](Cc2c[nH]c3ccccc23)NC(=O)[C@H](CCCNC(=N)N)NC(=O)[C@@H]2CCCN2C(=O)[C@H](Cc2c[nH]cn2)NC(=O)[C@@H](NC(=O)[C@@H](N)Cc2ccc(O)cc2)CC(=O)NC[C@@H](C(=O)N[C@@H](Cc2ccc(O)cc2)C(N)=O)NC(=O)[C@H](Cc2ccccc2)NC1=O
B3: SEQ ID NO:30 (Tyr-c[Asp-(rac)Atc-DPhe-Arg-Trp-Asn-Ala-Phe-Dpr]-Tyr) (peptide)
peptide: YDXXRWNAFXY
modifications: Asp-Dpr side chain lactam bridge; Dpr; (rac)Atc; DPhe; C-terminal amide (amide resin)
B4: SEQ ID NO:23 (Ac-Nle-c[Asp-His-Arg-Phe-DPhe-Lys]) (peptide)
peptide: Ac-[Nle]DHRF[dF]K-NH2
modifications: lactam 2-7
SMILES: CCCC[C@H](NC(C)=O)C(=O)N[C@H]1CC(=O)NCCCC[C@@H](C(N)=O)NC(=O)[C@@H](Cc2ccccc2)NC(=O)[C@H](Cc2ccccc2)NC(=O)[C@H](CCCNC(=N)N)NC(=O)[C@H](Cc2c[nH]cn2)NC1=O

Target: mouse melanocortin-1 receptor (mouse, UniProt Q01727 1-315)
Assay: cell-based or functional assay

mouse melanocortin-1 receptor, sequence (Q01727 whole entry): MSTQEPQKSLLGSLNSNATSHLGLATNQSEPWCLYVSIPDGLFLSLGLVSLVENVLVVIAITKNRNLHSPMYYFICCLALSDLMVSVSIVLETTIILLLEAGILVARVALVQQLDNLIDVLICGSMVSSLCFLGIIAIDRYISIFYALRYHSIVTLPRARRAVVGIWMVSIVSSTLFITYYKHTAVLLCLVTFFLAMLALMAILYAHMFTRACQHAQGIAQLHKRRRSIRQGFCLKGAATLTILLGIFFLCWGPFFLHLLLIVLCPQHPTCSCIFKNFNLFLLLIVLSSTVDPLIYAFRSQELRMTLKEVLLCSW

| Binder | EC50 (agonist) |
| --- | --- |
| YDFRWNAF[Dap]Y-NH2 (lactam 2-9) [SEQ ID NO:6 (Tyr-c[Asp-Phe-Arg-Trp-Asn-Ala-Phe-Dpr]-Tyr)] | 19.7 µM |
| YDHXRANAFXY (Asp-Dpr side chain lactam bridge; Dpr; DPhe; C-terminal amide (amide resin)) [SEQ ID NO:27 (Tyr-c[Asp-His-DPhe-Arg-Ala-Asn-Ala-Phe-Dpr]-Tyr)] | 0.35 µM |
| B1 | 6.12 µM |
| YDHXRWNAFXY (Asp-Dpr side chain lactam bridge; Dpr; DNal(2′); C-terminal amide (amide resin)) [SEQ ID NO:33 (Tyr-c[Asp-His-DNal(2′)-Arg-Trp-Asn-Ala-Phe-Dpr]-Tyr)] | 0.00556 µM |
| B2 | 10.3 µM |
| YDHXAWNAFXY (Asp-Dpr side chain lactam bridge; Dpr; DPhe; C-terminal amide (amide resin)) [SEQ ID NO:26 (Tyr-c[Asp-His-DPhe-Ala-Trp-Asn-Ala-Phe-Dpr]-Tyr)] | 0.0665 µM |
| B3 | 0.69 µM |
| YDFXRWNAFXY (Asp-Dpr side chain lactam bridge; Dpr; DPhe; C-terminal amide (amide resin)) [SEQ ID NO:29 (Tyr-c[Asp-Phe-DPhe-Arg-Trp-Asn-Ala-Phe-Dpr]-Tyr)] | 0.00604 µM |
| Ac-[Nle]DHR[dF]FK-NH2 (lactam 2-7) [SEQ ID NO:22 (Ac-Nle-c[Asp-His-Arg-DPhe-Phe-Lys])] | 0.44 µM |
| B4 | 2.63 µM |

Target: mouse melanocortin-3 receptor (mouse, UniProt P33033 1-323)
Assay: cell-based or functional assay

mouse melanocortin-3 receptor, sequence (P33033 whole entry): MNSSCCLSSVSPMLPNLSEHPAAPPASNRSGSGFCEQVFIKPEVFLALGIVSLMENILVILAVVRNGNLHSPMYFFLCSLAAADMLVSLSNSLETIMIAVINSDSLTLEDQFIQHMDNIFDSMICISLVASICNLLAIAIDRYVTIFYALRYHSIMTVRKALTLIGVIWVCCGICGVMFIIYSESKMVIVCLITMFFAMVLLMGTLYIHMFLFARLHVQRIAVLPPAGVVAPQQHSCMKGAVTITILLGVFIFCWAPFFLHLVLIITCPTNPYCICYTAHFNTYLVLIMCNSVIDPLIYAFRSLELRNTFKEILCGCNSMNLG

| Binder | EC50 (agonist) | pA2 (antagonist) | pA2 (antagonist; Partial agonist) |
| --- | --- | --- | --- |
| Ac-SYS[Nle]EH[dR]FFGKPV-NH2 [SEQ ID NO:16 (Ac-Ser-Tyr-Ser-Nle-Glu-His-DArg-Phe-Phe-Gly-Lys-Pro-Val)] | > 100 µM |  |  |
| YDHXRANAFXY (Asp-Dpr side chain lactam bridge; Dpr; DPhe; C-terminal amide (amide resin)) [SEQ ID NO:27 (Tyr-c[Asp-His-DPhe-Arg-Ala-Asn-Ala-Phe-Dpr]-Tyr)] | 13.5 µM |  |  |
| YDHXRWNAFXY (Asp-Dpr side chain lactam bridge; Dpr; DNal(2′); C-terminal amide (amide resin)) [SEQ ID NO:33 (Tyr-c[Asp-His-DNal(2′)-Arg-Trp-Asn-Ala-Phe-Dpr]-Tyr)] |  | 8.3 |  |
| B2 | 13.2 µM |  |  |
| YDHXAWNAFXY (Asp-Dpr side chain lactam bridge; Dpr; DPhe; C-terminal amide (amide resin)) [SEQ ID NO:26 (Tyr-c[Asp-His-DPhe-Ala-Trp-Asn-Ala-Phe-Dpr]-Tyr)] | 23.8 µM |  |  |
| B3 |  | 6.4 |  |
| YDFXRWNAFXY (Asp-Dpr side chain lactam bridge; Dpr; DPhe; C-terminal amide (amide resin)) [SEQ ID NO:29 (Tyr-c[Asp-Phe-DPhe-Arg-Trp-Asn-Ala-Phe-Dpr]-Tyr)] |  |  | 7.2 |
| Ac-[Nle]DHR[dF]FK-NH2 (lactam 2-7) [SEQ ID NO:22 (Ac-Nle-c[Asp-His-Arg-DPhe-Phe-Lys])] | 14.4 µM |  |  |
| YDRFFNAF[Dap]Y-NH2 (lactam 2-9) [SEQ ID NO:3 (Tyr-c[Asp-Arg-Phe-Phe-Asn-Ala-Phe-Dpr]-Tyr)] |  | 5.7 |  |

Target: mouse melanocortin-4 receptor (mouse, UniProt P56450 1-332)
Assay: cell-based or functional assay

mouse melanocortin-4 receptor, sequence (P56450 whole entry): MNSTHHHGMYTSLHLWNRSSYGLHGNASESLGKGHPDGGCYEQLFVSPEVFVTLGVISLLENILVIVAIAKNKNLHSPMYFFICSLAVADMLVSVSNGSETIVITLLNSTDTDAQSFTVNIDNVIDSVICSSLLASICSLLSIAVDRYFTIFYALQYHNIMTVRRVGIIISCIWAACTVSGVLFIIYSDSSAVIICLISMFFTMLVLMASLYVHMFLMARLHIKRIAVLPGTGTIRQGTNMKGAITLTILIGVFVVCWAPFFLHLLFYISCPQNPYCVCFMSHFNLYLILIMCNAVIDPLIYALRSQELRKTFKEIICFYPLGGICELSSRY

| Binder | EC50 (agonist) | pA2 (antagonist; Partial agonist) | pA2 (antagonist) |
| --- | --- | --- | --- |
| Ac-SYS[Nle]EH[dR]FFGKPV-NH2 [SEQ ID NO:16 (Ac-Ser-Tyr-Ser-Nle-Glu-His-DArg-Phe-Phe-Gly-Lys-Pro-Val)] | > 100 µM |  |  |
| YDFRWNAF[Dap]Y-NH2 (lactam 2-9) [SEQ ID NO:6 (Tyr-c[Asp-Phe-Arg-Trp-Asn-Ala-Phe-Dpr]-Tyr)] | 13.4 µM |  |  |
| YDHXRANAFXY (Asp-Dpr side chain lactam bridge; Dpr; DPhe; C-terminal amide (amide resin)) [SEQ ID NO:27 (Tyr-c[Asp-His-DPhe-Arg-Ala-Asn-Ala-Phe-Dpr]-Tyr)] | 0.71 µM |  |  |
| B1 | 10.9 µM |  |  |
| YDHXRWNAFXY (Asp-Dpr side chain lactam bridge; Dpr; DNal(2′); C-terminal amide (amide resin)) [SEQ ID NO:33 (Tyr-c[Asp-His-DNal(2′)-Arg-Trp-Asn-Ala-Phe-Dpr]-Tyr)] |  | 9.3 |  |
| B2 | 16.7 µM |  |  |
| YDHXAWNAFXY (Asp-Dpr side chain lactam bridge; Dpr; DPhe; C-terminal amide (amide resin)) [SEQ ID NO:26 (Tyr-c[Asp-His-DPhe-Ala-Trp-Asn-Ala-Phe-Dpr]-Tyr)] | 0.0325 µM |  |  |
| B3 | 0.115 µM |  |  |
| YDFXRWNAFXY (Asp-Dpr side chain lactam bridge; Dpr; DPhe; C-terminal amide (amide resin)) [SEQ ID NO:29 (Tyr-c[Asp-Phe-DPhe-Arg-Trp-Asn-Ala-Phe-Dpr]-Tyr)] | 0.00064 µM |  |  |
| Ac-[Nle]DHR[dF]FK-NH2 (lactam 2-7) [SEQ ID NO:22 (Ac-Nle-c[Asp-His-Arg-DPhe-Phe-Lys])] | 5 µM |  |  |
| B4 | > 100 µM |  |  |
| YDRFFNAF[Dap]Y-NH2 (lactam 2-9) [SEQ ID NO:3 (Tyr-c[Asp-Arg-Phe-Phe-Asn-Ala-Phe-Dpr]-Tyr)] |  |  | 5.9 |

Target: mouse melanocortin-5 receptor (mouse, UniProt P41149 1-325)
Assay: cell-based or functional assay

mouse melanocortin-5 receptor, sequence (P41149 whole entry): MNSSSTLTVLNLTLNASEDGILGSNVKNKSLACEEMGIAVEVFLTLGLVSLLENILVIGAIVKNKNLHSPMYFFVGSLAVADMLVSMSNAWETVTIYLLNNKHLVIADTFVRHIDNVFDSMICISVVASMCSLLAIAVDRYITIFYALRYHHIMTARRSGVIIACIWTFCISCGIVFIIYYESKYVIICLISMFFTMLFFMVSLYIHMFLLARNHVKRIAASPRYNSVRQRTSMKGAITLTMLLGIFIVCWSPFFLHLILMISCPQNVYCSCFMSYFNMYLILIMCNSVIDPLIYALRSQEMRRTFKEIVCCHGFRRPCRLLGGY

| Binder | EC50 (agonist) |
| --- | --- |
| YDFRWNAF[Dap]Y-NH2 (lactam 2-9) [SEQ ID NO:6 (Tyr-c[Asp-Phe-Arg-Trp-Asn-Ala-Phe-Dpr]-Tyr)] | 3.9 µM |
| YDHXRANAFXY (Asp-Dpr side chain lactam bridge; Dpr; DPhe; C-terminal amide (amide resin)) [SEQ ID NO:27 (Tyr-c[Asp-His-DPhe-Arg-Ala-Asn-Ala-Phe-Dpr]-Tyr)] | 0.0501 µM |
| B1 | 2.22 µM |
| YDHXRWNAFXY (Asp-Dpr side chain lactam bridge; Dpr; DNal(2′); C-terminal amide (amide resin)) [SEQ ID NO:33 (Tyr-c[Asp-His-DNal(2′)-Arg-Trp-Asn-Ala-Phe-Dpr]-Tyr)] | 0.0223 µM |
| B2 | 7.9 µM |
| YDHXAWNAFXY (Asp-Dpr side chain lactam bridge; Dpr; DPhe; C-terminal amide (amide resin)) [SEQ ID NO:26 (Tyr-c[Asp-His-DPhe-Ala-Trp-Asn-Ala-Phe-Dpr]-Tyr)] | 0.00206 µM |
| B3 | 0.44 µM |
| YDFXRWNAFXY (Asp-Dpr side chain lactam bridge; Dpr; DPhe; C-terminal amide (amide resin)) [SEQ ID NO:29 (Tyr-c[Asp-Phe-DPhe-Arg-Trp-Asn-Ala-Phe-Dpr]-Tyr)] | 0.00315 µM |
| Ac-[Nle]DHR[dF]FK-NH2 (lactam 2-7) [SEQ ID NO:22 (Ac-Nle-c[Asp-His-Arg-DPhe-Phe-Lys])] | 3.6 µM |
| YDRFFNAF[Dap]Y-NH2 (lactam 2-9) [SEQ ID NO:3 (Tyr-c[Asp-Arg-Phe-Phe-Asn-Ala-Phe-Dpr]-Tyr)] | > 100 µM |

Source: patent publication US7084111 (UNIVERSITY OF FLORIDA RESEARCH FOUNDATION, dated 2006)
